Results taken from patent publication US10087225B2, “Formulation of MK2 inhibitor peptides” (MOERAE MATRIX, INC., priority 2015, dated 2018).

Tests used:
Ab1(Q252H)(h) = Ab1(Q252H)(h) (Homo sapiens, UniProt P00519, Q252H); experiment: Kinase Profiling Assay; format: biochemical; details: 100 μM
CHK2(h) = CHK2(h) (Homo sapiens, UniProt O96017); experiment: Kinase Profiling Assay; format: biochemical; details: 100 μM
EphA1(h) = biological target: T1, EphA1(h) (Homo sapiens, UniProt P21709); experiment: Kinase Profiling Assay; format: biochemical; details: 100 μM
T1 sequence (P21709 26-976): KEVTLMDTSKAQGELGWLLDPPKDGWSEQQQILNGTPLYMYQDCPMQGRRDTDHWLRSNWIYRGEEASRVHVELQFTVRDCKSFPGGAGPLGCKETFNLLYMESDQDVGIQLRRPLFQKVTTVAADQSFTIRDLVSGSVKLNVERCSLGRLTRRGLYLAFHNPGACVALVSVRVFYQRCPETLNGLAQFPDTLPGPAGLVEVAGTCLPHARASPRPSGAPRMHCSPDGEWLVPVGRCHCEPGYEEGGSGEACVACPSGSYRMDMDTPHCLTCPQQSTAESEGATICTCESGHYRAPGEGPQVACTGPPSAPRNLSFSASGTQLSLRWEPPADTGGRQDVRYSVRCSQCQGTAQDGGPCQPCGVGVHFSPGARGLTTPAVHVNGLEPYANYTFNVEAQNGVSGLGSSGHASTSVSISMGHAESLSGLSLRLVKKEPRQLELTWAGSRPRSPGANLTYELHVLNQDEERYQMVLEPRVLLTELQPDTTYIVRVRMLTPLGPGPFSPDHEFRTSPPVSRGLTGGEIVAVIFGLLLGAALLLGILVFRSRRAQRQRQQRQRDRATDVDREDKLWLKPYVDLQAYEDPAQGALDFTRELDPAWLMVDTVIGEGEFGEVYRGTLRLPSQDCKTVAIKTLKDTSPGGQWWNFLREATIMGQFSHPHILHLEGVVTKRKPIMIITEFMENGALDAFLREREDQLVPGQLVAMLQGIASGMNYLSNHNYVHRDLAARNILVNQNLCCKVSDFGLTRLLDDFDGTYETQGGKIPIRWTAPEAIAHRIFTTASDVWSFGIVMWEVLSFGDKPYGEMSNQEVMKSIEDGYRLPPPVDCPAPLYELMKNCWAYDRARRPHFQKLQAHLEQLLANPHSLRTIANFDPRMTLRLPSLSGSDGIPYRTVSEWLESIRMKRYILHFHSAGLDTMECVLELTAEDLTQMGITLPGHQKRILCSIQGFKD

JNK2α2(h) = JNK2α2(h) (Homo sapiens, UniProt P45984); experiment: Kinase Profiling Assay; format: biochemical; details: 100 μM
LIMK1(h) = LIMK1(h) (Homo sapiens, UniProt P53667); experiment: Kinase Profiling Assay; format: biochemical; details: 100 μM
LIMK1(h), sequence (P53667 whole entry): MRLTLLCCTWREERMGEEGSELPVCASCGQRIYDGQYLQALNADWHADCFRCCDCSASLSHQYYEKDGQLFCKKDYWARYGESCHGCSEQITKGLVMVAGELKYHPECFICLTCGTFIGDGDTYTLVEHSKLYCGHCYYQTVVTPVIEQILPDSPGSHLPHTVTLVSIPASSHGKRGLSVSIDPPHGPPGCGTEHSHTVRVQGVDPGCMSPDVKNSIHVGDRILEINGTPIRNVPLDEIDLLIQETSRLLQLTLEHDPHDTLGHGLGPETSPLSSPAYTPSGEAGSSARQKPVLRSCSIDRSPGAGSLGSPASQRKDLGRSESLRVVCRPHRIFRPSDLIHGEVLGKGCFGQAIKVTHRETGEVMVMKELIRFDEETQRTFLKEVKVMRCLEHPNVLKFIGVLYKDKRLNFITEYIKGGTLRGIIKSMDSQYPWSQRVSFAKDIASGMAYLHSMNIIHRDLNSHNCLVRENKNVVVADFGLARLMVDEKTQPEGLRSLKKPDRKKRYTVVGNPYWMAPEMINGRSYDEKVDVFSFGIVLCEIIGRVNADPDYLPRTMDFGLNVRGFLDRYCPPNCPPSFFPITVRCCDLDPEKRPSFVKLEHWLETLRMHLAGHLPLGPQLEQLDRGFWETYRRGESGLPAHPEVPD

MRCKβ(h) = MRCKβ(h) (Homo sapiens, UniProt Q9Y5S2); experiment: Kinase Profiling Assay; format: biochemical; details: 100 μM
MRCKβ(h), sequence (Q9Y5S2 whole entry): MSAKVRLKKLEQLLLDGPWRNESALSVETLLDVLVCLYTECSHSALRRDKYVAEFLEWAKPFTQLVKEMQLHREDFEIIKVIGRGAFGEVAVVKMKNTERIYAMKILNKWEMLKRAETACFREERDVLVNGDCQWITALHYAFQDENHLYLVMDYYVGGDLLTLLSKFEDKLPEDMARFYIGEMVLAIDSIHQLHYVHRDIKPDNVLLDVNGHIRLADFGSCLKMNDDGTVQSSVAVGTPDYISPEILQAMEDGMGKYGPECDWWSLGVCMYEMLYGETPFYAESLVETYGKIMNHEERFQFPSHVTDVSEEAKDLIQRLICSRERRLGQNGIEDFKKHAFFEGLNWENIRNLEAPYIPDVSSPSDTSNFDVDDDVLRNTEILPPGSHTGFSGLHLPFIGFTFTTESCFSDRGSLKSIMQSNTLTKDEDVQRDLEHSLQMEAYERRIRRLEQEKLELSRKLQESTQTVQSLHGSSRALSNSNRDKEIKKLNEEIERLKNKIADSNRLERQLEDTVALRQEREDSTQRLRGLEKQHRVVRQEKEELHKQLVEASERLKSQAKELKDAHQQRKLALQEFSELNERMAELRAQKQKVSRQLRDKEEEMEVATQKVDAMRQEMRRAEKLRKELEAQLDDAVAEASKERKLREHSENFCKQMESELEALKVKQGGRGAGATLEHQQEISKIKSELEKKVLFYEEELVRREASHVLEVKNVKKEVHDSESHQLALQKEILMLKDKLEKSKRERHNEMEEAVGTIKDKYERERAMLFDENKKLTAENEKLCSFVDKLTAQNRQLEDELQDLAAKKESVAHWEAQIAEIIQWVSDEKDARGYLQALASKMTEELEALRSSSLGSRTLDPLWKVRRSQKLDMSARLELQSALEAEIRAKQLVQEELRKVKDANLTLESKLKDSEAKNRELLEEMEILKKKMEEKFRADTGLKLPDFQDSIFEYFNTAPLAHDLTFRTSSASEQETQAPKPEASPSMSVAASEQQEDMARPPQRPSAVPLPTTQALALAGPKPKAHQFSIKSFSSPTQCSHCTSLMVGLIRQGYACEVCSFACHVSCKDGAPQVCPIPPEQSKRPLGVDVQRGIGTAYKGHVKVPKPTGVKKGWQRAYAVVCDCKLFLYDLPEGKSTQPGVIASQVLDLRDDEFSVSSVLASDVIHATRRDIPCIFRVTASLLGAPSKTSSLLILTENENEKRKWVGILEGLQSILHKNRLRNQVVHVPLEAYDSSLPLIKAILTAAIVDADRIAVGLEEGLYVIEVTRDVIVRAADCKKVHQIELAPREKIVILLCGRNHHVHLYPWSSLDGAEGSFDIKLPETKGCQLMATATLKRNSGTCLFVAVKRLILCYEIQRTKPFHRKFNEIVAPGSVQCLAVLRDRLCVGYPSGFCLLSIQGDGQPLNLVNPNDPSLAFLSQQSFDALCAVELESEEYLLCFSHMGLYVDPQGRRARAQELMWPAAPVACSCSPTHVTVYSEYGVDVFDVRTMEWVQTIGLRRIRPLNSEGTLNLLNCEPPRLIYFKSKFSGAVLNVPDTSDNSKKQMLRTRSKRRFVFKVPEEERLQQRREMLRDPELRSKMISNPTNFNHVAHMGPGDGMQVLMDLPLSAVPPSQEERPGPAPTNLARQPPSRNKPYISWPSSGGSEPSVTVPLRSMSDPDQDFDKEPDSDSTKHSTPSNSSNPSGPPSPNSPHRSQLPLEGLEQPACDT

ROCK-I(h) = ROCK-I(h) (Homo sapiens, UniProt Q13464); experiment: Kinase Profiling Assay; format: biochemical; details: 100 μM
VRK2(h) = VRK2(h) (Homo sapiens, UniProt Q86Y07); experiment: Kinase Profiling Assay; format: biochemical; details: 100 μM
CK1γ1(h) = CK1γ1(h) (Homo sapiens, UniProt Q9HCP0); experiment: Kinase Profiling Assay; format: biochemical; details: 100 μM
CK1γ3(h) = CK1γ3(h) (Homo sapiens, UniProt Q9Y6M4); experiment: Kinase Profiling Assay; format: biochemical; details: 100 μM
CK1γ3(h), sequence (Q9Y6M4 whole entry): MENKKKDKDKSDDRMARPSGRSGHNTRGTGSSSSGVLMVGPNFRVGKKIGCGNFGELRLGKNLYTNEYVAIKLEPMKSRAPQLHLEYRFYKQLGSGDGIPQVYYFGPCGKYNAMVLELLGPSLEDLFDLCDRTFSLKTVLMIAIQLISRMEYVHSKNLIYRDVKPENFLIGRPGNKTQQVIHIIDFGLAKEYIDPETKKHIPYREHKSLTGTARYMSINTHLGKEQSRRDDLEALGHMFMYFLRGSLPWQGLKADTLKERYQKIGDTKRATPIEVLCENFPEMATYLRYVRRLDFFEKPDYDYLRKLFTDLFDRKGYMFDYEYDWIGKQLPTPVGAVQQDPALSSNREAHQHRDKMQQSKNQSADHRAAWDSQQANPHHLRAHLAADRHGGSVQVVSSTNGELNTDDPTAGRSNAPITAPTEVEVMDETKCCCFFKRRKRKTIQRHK

CK2α2(h) = CK2α2(h) (Homo sapiens, UniProt P19784); experiment: Kinase Profiling Assay; format: biochemical; details: 100 μM
CK2α2(h), sequence (P19784 whole entry): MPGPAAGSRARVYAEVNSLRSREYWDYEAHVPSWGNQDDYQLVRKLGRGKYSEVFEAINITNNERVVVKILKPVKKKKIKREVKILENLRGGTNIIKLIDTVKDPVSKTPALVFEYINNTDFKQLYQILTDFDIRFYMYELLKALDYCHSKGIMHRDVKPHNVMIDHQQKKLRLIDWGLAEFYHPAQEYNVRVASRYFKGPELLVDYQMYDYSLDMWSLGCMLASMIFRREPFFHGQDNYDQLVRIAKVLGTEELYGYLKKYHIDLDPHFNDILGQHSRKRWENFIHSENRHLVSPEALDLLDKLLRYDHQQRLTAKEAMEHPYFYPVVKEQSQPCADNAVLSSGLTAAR

CLK2(h) = CLK2(h) (Homo sapiens, UniProt P49760); experiment: Kinase Profiling Assay; format: biochemical; details: 100 μM
CLK2(h), sequence (P49760 whole entry): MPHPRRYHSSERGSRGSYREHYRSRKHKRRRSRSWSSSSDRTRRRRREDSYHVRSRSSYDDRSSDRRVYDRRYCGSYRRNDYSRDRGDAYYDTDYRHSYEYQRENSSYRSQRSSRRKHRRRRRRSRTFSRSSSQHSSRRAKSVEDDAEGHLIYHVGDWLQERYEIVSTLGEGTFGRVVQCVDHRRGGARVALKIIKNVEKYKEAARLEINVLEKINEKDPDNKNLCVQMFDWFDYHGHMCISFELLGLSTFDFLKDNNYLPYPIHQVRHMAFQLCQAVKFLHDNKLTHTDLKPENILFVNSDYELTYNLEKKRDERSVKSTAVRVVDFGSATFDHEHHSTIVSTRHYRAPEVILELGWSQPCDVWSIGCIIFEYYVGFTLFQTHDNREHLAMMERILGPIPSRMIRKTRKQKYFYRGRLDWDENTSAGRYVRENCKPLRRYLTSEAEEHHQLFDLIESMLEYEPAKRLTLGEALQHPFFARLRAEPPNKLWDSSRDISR

Yes(h) = Yes(h) (Homo sapiens, UniProt P07947); experiment: Kinase Profiling Assay; format: biochemical; details: 100 μM
Yes(h), sequence (P07947 whole entry): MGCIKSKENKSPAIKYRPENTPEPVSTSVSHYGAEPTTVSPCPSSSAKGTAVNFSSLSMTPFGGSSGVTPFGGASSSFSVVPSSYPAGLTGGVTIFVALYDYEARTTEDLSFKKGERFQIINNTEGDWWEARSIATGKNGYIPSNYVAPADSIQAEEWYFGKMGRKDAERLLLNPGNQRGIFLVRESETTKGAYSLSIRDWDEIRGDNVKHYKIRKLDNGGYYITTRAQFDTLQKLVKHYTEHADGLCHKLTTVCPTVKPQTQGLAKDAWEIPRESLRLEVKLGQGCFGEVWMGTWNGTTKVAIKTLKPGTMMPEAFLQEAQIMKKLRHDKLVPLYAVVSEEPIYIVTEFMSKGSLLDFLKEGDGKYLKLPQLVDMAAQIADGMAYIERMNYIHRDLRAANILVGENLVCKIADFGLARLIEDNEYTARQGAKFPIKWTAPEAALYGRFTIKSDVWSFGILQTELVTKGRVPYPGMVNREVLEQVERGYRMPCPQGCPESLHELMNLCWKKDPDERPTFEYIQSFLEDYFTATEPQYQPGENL

FGFR2(N549H)(h) = FGFR2(N549H)(h) (Homo sapiens, UniProt P21802, N549H); experiment: Kinase Profiling Assay; format: biochemical
JNK1α1(h) = JNK1α1(h) (Homo sapiens, UniProt P45983); experiment: Kinase Profiling Assay; format: biochemical
JNK1α1(h), sequence (P45983 1-384 isoform P45983-2): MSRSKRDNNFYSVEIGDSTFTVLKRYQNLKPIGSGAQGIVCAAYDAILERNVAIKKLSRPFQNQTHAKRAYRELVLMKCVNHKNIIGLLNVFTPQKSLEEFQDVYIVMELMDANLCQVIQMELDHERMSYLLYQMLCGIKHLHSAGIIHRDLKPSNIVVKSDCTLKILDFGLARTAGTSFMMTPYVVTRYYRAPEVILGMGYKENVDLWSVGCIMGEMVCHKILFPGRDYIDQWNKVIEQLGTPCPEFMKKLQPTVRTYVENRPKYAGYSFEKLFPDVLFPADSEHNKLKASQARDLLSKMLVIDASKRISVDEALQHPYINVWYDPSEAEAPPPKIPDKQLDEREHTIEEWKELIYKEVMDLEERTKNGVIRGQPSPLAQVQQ

MKK7β(h) = MKK7β(h) (Homo sapiens, UniProt O14733); experiment: Kinase Profiling Assay; format: biochemical
MKK7β(h), sequence (O14733 whole entry): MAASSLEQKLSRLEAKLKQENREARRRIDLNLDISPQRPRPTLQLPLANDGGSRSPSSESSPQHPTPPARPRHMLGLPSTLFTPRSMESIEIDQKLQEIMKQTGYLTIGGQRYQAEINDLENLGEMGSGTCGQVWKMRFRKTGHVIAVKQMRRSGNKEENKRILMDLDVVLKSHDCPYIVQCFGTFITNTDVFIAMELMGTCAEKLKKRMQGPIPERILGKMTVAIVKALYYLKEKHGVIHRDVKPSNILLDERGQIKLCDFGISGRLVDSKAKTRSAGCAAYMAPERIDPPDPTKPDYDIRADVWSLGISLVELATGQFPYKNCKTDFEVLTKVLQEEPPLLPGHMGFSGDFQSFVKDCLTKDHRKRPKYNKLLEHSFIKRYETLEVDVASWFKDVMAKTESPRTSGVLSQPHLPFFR

HCAVSMCs = experiment: Cytosolic vs. organelle bound peptide by digitonin semi-permeabilization; format: cell-based, human; details: Bafilomycin treatment
Procedure: In order to quantify the cytosolic bioavailability of the MK2i and HSP20 peptides a method to separate cytosolic and organelle bound (i.e. endosomal, lysosomal, golgi, etc.) peptide was adapted from the methods developed by Liu et a140. The procedure was optimized for this experiment based upon LDH release from HCAVSMCs treated with varying concentrations of digitonin (Calbiochem) in buffer (150 mM NaCl, 0.2 mM EDTA, 20 mM HEPES-NaOH (pH 7.4), 2 mM DTT and 2 mM MgCL2) on ice for 10 mins on a rotary shaker operating at 100 RPM (supplementary FIG. 3). A concentration of 25 μg/mL was then chosen as the optimal digitonin concentration for selective semi-permeabilization of the HCAVSMC membrane and subsequently used for the analysis of intracellular peptide distribution.
To quantify intracellular distribution of the MK2i and p-HSP20 peptides, HCAVSMCs were seeded into a 96 well plate at a density of 20,000 cells/cm2 and allowed to adhere overnight in complete growth medium. A portion of the cells were pretreated with 500 nM Bafilomycin A1 (Sigma) for 30 minutes, and the Bafilomycin was included in subsequent peptide/NP treatment and in the post-treatment incubation phase to inhibit endosomal acidification. […] Treatments were removed and cells were incubated in fresh medium with or without 500 nM Bafilomycin A1 for 6 hours. […]

[1] = Heat-accelerated stability of MMI-0100 in buffers pH 4-8 (pH, appearance, HPLC assay, impurities); details: in citrate
Excerpt: Testing of stability samples included pH (initial only), appearance, HPLC assay and impurities. CC=clear and colorless.

Substance: HRRIKAWLKKIKALARQLGVAA (Mammalian) [MMI-0500]
- % activity (Ab1(Q252H)(h)): 40%
- % activity (CHK2(h)): 13%
- % activity (EphA1(h)): 40%
- % activity (JNK2α2(h)): 81%
- % activity (LIMK1(h)): 87%
- % activity (MRCKβ(h)): -10%
- % activity (ROCK-I(h)): 17%
- % activity (VRK2(h)): 169%

Substance: YARAAARQARAKALNRQLGVA (Mammalian) [MMI-0200]
- % activity (CK1γ1(h)): 98%
- % activity (CK1γ3(h)): 96%
- % activity (CK2α2(h)): 88%
- % activity (CLK2(h)): 97%
- % activity (Yes(h)): 93%

Substance: H-YARAAARQARAKALARQLGVAA-OH [MMI-0100]
- activity at 100 µM (FGFR2(N549H)(h)): 95%
- activity at 100 µM (JNK1α1(h)): 91%
- activity at 100 µM (MKK7β(h)): 137%
- cytosolic fraction of internalized free peptide (HCAVSMCs): 9.64%±8.17%
- pH of greatest stability [1]: 6
